Patent US20190185562A1 (Regeneron, published 2019)

Columns and labels:
[1] = target: T1, human LEPR extracellular domain expressed with a C-terminal myc-myc-hexahistidine tag (human, UniProt P48357 22-839); experiment: SPR (Biacore 4000), antibody captured by anti-human Fc, 25 C
T1 construct: Monomeric reagent; the entry named is the whole tagged construct; also called hLEPR-MMH; hLEPR.mmh

[2] = target: T2, mutant human LEPR (Y1141F) on HEK293.STAT3.Luc.GP130.hLEPR (Y1141F) cells (human, UniProt P48357 22-1165); experiment: cell-based or functional assay
T2 sequence (looked up): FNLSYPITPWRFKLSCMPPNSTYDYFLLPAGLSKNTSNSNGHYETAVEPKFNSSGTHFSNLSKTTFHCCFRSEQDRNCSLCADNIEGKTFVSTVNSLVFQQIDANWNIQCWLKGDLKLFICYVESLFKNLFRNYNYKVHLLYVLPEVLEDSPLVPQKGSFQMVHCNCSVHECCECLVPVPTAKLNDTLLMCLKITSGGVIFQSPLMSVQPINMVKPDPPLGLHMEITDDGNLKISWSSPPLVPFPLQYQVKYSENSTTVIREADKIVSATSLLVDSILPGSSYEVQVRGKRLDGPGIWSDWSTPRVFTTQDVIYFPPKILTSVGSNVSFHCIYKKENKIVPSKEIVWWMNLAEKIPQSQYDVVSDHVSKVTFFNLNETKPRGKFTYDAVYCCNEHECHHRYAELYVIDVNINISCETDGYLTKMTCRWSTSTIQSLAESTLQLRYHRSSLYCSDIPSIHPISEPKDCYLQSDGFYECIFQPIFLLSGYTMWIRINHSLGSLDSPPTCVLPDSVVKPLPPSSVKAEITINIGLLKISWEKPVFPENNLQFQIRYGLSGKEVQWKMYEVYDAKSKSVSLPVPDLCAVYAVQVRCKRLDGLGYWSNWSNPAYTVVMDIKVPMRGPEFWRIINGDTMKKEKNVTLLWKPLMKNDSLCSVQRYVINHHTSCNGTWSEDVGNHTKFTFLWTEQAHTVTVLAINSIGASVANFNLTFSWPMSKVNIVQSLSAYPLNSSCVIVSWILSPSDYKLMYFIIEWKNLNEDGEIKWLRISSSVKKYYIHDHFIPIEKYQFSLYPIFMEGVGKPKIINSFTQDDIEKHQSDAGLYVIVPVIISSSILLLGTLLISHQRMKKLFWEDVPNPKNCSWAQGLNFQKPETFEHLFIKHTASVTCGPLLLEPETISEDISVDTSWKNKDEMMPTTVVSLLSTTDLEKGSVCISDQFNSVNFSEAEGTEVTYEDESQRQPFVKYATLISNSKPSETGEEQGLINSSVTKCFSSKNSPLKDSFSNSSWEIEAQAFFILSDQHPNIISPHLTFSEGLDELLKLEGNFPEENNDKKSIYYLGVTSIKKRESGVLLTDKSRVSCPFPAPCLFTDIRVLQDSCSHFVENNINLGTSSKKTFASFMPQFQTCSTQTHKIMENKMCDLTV

[3] = target: T3, wild-type human GP130 on HEK293.STAT3.Luc.GP130.hLEPR reporter cells (human, UniProt P40189 23-918); experiment: cell-based or functional assay
T3 sequence (looked up): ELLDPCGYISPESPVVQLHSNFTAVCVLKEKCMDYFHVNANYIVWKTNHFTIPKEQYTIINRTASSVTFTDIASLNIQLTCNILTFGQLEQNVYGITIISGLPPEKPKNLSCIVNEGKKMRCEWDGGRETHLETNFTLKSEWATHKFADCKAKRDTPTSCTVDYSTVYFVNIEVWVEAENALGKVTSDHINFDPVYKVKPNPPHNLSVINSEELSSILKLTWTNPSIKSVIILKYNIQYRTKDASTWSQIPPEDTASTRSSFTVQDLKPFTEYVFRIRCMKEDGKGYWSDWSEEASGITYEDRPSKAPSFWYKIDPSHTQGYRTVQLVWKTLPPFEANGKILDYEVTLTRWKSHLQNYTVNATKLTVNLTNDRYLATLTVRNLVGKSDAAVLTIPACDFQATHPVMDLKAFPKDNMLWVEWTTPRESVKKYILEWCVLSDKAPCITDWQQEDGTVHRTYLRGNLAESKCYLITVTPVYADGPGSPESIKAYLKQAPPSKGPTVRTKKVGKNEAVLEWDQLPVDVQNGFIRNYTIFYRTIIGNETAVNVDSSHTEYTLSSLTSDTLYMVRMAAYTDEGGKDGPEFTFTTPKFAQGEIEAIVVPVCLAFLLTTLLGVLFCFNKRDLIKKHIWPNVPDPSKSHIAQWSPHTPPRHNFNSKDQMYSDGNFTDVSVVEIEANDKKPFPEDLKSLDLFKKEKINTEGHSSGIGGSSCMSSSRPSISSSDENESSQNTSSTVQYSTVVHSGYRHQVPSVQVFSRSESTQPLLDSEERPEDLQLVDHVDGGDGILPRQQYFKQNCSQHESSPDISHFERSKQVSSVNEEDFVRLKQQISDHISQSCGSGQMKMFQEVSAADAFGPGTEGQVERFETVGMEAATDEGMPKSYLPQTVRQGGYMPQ

[4] = target: T4, extracellular domain of human LEPR, GPI-anchored on HEK293/hLEPR-GPI cells (human, UniProt P48357 22-839, GPI anchor at the C-terminus ; GPI anchor at the C-terminus, added through the carboxypeptidase M signal peptide. The protein is displayed on the HEK293 cell membrane.); experiment: FACS, 200 nM antibody, HEK293/hLEPR-GPI cells, No Leptin
T4 sequence: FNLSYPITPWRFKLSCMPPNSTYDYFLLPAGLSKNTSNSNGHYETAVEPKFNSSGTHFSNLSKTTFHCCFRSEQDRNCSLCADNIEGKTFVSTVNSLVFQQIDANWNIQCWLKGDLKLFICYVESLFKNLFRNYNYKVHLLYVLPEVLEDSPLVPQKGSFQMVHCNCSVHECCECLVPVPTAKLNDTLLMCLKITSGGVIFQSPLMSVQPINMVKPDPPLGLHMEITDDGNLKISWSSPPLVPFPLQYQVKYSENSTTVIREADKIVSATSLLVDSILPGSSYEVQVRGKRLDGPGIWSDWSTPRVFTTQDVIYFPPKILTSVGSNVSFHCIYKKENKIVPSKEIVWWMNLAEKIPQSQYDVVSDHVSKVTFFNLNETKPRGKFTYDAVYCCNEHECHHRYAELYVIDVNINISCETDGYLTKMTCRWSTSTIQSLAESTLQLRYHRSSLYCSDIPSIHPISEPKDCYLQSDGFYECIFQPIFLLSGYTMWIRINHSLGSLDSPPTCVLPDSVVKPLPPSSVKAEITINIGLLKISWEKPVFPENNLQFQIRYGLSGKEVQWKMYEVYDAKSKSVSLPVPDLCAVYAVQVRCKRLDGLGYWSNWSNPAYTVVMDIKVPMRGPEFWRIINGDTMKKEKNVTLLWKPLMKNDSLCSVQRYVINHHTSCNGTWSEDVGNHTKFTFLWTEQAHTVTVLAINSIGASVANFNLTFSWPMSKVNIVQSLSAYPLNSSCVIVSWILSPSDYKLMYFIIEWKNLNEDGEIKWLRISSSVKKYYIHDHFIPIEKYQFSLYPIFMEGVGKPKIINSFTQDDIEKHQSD
Experimental: (§1) For the FACS analysis, 0.5×10^6 cells/well of HEK293 parental cells, HEK293/Stat3-luc/gp130-2X Sort cells, and HEK293/hLEPR-GPI cells, were incubated with 200 nM of the conventional antibodies against either GP130 or LEPR or with LEPR×GP130 bispecific antibodies, along with isotype control antibodies at 4° C. in PBS (without calcium and magnesium) containing 2% FBS.
(§2) Cells were fixed using BD CytoFix™ (Becton Dickinson, #554655) and analyzed on an IQue® (Intellicyt) Flow Cytometer. Unstained and secondary antibody alone controls were also tested for all cell lines. The results were analyzed using ForeCyt® (IntelliCyt) and FlowJo version 10 softwares to determine the geometric means of fluorescence for viable cells.

[5] = target: T5, full length human GP130 (leucine at position 2 changed to valine) on HEK293/Stat3-luc/gp130-2X Sort cells (human, UniProt P40189 23-918); experiment: FACS, 200 nM antibody, HEK293/gp130 2X Sort cells
T5 construct: whole, on cells; also called HEK293/gp130 2X Sort
T5 sequence (looked up): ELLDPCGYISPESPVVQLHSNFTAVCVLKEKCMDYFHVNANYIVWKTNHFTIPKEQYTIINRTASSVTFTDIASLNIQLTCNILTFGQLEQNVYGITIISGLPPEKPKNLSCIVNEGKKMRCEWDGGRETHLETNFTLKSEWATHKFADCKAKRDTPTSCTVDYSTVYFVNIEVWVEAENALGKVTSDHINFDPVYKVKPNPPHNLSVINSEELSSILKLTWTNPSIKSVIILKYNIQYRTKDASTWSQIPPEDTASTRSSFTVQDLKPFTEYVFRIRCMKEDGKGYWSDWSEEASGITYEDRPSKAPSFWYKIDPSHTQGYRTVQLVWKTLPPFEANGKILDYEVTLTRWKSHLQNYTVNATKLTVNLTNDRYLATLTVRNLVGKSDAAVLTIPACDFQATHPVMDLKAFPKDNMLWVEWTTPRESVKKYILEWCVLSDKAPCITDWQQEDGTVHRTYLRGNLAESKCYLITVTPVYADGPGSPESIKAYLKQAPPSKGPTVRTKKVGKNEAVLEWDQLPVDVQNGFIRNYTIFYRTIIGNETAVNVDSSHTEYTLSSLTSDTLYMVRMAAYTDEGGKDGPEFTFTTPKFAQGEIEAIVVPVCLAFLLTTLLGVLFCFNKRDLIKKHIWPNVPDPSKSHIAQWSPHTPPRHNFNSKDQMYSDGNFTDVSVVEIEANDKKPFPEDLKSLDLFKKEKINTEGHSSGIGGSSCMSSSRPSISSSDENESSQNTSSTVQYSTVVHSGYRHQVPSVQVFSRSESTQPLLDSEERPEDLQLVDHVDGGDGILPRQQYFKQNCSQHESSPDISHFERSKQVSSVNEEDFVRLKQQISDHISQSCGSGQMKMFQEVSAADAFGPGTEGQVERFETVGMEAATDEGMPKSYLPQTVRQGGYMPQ
Experimental: as §1, §2

[6] = target: T4, extracellular domain of human LEPR, …; experiment: FACS, 200 nM antibody, HEK293/hLEPR-GPI cells, 1 µM Leptin present
Experimental: as §1, §2

[7] = target: T6, macaca fascicularis LEPR extracellular domain expressed with a C-terminal myc-myc-hexahistidine tag (Macaca fascicularis, UniProt Q9MYL0 22-837 (rhesus entry)); experiment: SPR (Biacore 4000), antibody captured by anti-human Fc, 25 C
T6 construct: Monomeric reagent; the entry named is the whole tagged construct; also called mfLEPR-MMH

B1: bsAb21236D (bispecific antibody, V domains shown)
VH 1: QVQLQESGPGLVKPSQTLSLTCTVSGGSISSGGDYWSWIRQLPGKGLEWIGYIYYSGSAYYNPSLKSRGTISIDTSKNQFSLKLTSVTAADTAVYFCVKLRFLEWFLGGWFGPWGQGTLVTVSS
VH 2: QVQLVESGGGLVKPGGSLRLSCAASGFTFSDYYMTWIRQTPGKGLDWVSYISSSGTNKYNADSVKGRFTISRDNAKNSLYLQMNSLRAEDTAVYYCVRDPPWGMDVWGQGTTVTVSS
VL: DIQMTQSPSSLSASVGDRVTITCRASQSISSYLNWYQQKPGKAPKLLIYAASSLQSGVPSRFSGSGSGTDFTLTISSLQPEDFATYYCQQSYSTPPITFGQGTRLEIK
notes: LEPR x GP130 bispecific antibody; also called H4H21236D
100 nM hLEPR-MMH Bound (RU) [1]: 8 RU

B2: bsAb21237D (bispecific antibody, V domains shown)
VH 1: EVQLVESGGGLVQPGGSLRLSCAASGFTFSNYGMTWVRQAPGKGLEWVSAITGGGGSTYYSNSVKGRFTISRDNSKNTVYLRMNSVRAEDTAVYYCAKYKWNFVDDWGQGTTVTVSS
VH 2: QVQLVESGGGLVKPGGSLRLSCAASGFTFSDYYMTWIRQTPGKGLDWVSYISSSGTNKYNADSVKGRFTISRDNAKNSLYLQMNSLRAEDTAVYYCVRDPPWGMDVWGQGTTVTVSS
VL: not shown
notes: LEPR x GP130 bispecific with common light chain; also called H4H21237D; bsAb21237 (LEPR × GP130)
Percentage activation as compared to hOSM [2]: 20% | EC50 (M), STAT3-luciferase activation of HEK293.STAT3.Luc.GP130.hLEPR (Y1141F) cells, 10 nM leptin [3]: 2.46e-09 M | Percentage activation as compared to hOSM [3]: 20% | Binding Ratio: Normalized to Unstained Sample of Each Cell Line (FL4-A) [4]: 6320 ratio | Binding Ratio: Normalized to Unstained Sample of Each Cell Line (FL4-A) [5]: 169 ratio | Binding Ratio: Normalized to Unstained Sample of Each Cell Line (FL4-A) [6]: 5930 ratio

B3: bsAb21237D (bispecific antibody, V domains shown)
VH 1: EVQLVESGGGLVQPGGSLRLSCAASGFTFSNYGMTWVRQAPGKGLEWVSAITGGGGSTYYSNSVKGRFTISRDNSKNTVYLRMNSVRAEDTAVYYCAKYKWNFVDDWGQGTTVTVSS
VH 2: QVQLVESGGGLVKPGGSLRLSCAASGFTFSDYYMTWIRQTPGKGLDWVSYISSSGTNKYNADSVKGRFTISRDNAKNSLYLQMNSLRAEDTAVYYCVRDPPWGMDVWGQGTTVTVSS
VL: not shown
notes: LEPR x GP130 bispecific antibody; also called H4H21237D
t½ [1]: 10 min | t½ [7]: 10 min

B4: mAb18446 (antibody, V domains shown)
VH: EVQLVESGGGLVQPGGSLRLSCAASGFTFSNYGMTWVRQAPGKGLEWVSAITGGGGSTYYSNSVKGRFTISRDNSKNTVYLRMNSVRAEDTAVYYCAKYKWNFVDDWGQGTTVTVSS
VL: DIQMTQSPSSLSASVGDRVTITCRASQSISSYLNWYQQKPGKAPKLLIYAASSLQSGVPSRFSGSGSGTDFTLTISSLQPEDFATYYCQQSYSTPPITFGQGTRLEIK
notes: Conventional anti-LEPR antibody; also called mAB18446 (anti-LEPR mAb)
Binding Ratio: Normalized to Unstained Sample of Each Cell Line (FL4-A) [4]: 7020 ratio | Binding Ratio: Normalized to Unstained Sample of Each Cell Line (FL4-A) [6]: 6390 ratio
